The values below come from publication PMC7721913 (The Journal of Cell Biology, 2020).

In the experiment the target is KLC1 TPR1-6 fragment (human KNS2 residues 205-501) (human, UniProt Q07866 205-501). Description: ITC. (In general: ITC needs no label: the signal is the heat of the interaction.)
Sequence of KLC1 TPR1-6 fragment (human KNS2 residues 205-501) (Q07866 205-501): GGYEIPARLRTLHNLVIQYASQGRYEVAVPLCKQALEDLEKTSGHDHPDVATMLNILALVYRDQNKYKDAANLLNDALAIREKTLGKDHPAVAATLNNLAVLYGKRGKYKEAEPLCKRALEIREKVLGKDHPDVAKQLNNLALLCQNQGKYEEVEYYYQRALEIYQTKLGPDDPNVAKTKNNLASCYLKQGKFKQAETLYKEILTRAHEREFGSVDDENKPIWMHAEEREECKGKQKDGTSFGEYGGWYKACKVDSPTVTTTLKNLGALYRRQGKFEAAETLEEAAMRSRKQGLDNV

For orientation: Kd means a measure of binding affinity in units of concentration. High values mean weaker binding, low ones tighter binding. By stoichiometry N is commonly meant a count of units in the complex or per binding partner. For the molecule ESEMEDAYHEHQANLLR [WT SFPQ peptide spanning the Y-acidic motif], the Kd was found to be 3.83 ± 2.31 µM, the dH is -2.05 ± 0.438 kcal/mol and the “stoichiometry N” value came out at 0.964 ± 0.143.
